The values that follow come from patent US20190330354A1 (MITSUBISHI TANABE PHARMA, published 2019).

Like-named read-outs stand apart in the source and are kept apart here.

As a reminder, the Kd is a measure of binding affinity in units of concentration. A low value points to higher affinity.

Assay [1] concerns the target human cMET-Fc fusion protein (human) [IgG part: P01857]. Kind of assay: SPR with hMet-Fc.
The target of assay [2] is T1, Canine (limits assumed).
T1 construct: also called canine cMet; dog cMET
T1 receptor: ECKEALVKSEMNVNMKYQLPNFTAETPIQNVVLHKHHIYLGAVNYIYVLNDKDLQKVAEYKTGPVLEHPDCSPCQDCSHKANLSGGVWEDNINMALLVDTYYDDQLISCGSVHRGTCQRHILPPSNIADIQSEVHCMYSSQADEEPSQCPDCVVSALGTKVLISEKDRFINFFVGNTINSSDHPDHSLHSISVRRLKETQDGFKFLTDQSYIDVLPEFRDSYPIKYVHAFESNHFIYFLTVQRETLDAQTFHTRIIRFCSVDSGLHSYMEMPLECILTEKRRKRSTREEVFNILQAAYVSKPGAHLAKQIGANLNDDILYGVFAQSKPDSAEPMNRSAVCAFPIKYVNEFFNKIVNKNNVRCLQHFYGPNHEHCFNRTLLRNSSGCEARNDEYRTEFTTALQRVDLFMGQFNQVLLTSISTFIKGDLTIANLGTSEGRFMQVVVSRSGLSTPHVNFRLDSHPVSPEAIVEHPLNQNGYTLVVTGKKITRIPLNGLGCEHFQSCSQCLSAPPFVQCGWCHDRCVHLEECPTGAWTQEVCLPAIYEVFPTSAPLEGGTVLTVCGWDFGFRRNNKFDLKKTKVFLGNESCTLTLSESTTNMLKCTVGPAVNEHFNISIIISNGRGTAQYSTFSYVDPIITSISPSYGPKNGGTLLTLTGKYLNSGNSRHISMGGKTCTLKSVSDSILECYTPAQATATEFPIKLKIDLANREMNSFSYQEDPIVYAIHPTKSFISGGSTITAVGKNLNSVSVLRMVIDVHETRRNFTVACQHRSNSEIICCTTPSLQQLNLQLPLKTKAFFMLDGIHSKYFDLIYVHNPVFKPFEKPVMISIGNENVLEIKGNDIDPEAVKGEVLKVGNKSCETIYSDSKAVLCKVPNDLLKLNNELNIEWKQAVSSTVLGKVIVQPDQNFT
Kind of assay: ELISA, antibody titrated on cMet of the named species, OD 450 nm. For orientation: ELISA stands for enzyme-linked immunosorbent assay.

In assay [3] the target is T2, mouse cMET (mouse, UniProt P16056 25-931, limits assumed).
T2 construct: ELISA antigen
The description is as above.

Assay [4] has as its target T3, rat cMET (rat, UniProt P97523 25-935, limits assumed).
T3 construct: ELISA antigen; also called rMET
Described as above.

Assay [5] addresses T1, Canine. The assay is described as above.
Assay [6] deals with T2, mouse cMET. Described as above. This is another data set of the same source.
Assay [7] deals with T3, rat cMET. The assay is described as above. This is another data set of the same source.
The next assay has as its target T4, human cMET (human, UniProt P08581 25-932, limits assumed).
T4 construct: also called hMET
Kind of assay: ELISA on human cMET, ratio to parental P3D12.

The target of assay [8] is T3, rat cMET. Description: ELISA on rat cMET, ratio to parental P3D12.
Target sequence in this assay (P97523 25-935 limits assumed): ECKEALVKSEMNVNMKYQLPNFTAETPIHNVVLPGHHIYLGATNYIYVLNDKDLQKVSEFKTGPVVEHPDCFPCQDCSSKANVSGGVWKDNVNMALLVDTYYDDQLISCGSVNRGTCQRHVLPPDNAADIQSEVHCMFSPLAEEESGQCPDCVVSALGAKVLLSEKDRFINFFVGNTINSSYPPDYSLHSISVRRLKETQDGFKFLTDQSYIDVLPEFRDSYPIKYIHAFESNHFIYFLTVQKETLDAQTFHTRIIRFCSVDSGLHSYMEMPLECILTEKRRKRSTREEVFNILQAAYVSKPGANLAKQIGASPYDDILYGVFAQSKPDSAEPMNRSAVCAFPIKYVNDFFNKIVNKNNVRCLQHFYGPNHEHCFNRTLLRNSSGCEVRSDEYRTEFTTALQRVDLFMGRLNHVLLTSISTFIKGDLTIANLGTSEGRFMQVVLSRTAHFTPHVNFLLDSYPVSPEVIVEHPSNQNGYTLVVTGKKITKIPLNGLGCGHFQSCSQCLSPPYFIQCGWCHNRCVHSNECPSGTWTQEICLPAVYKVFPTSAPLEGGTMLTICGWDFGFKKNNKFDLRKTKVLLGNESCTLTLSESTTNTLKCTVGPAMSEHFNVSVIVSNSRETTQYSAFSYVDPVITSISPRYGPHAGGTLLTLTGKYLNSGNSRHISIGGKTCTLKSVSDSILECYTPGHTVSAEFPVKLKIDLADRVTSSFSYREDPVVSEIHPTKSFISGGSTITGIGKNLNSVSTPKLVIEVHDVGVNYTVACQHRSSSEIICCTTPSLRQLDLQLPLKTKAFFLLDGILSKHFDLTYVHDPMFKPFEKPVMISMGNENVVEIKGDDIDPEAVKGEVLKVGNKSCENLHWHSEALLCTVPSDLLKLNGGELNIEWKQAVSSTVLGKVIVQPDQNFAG
In assay [9] the target is T1, Canine. Kind of assay: ELISA, antibody titrated on cMet of the named species, OD 450 nm.
Assay [10] deals with T2, mouse cMET. The description is as above. The source holds these as a separate data set.
Assay [11] addresses T1, Canine. Described as above.
Assay [12] addresses T2, mouse cMET. The assay is described as above. This is another data set of the same source.
For assay [13], the target named is T1, Canine. Described as above.
The target of assay [14] is T2, mouse cMET. Described as above. The source holds these as a separate data set.

T4 sequence (P08581 25-932 limits assumed): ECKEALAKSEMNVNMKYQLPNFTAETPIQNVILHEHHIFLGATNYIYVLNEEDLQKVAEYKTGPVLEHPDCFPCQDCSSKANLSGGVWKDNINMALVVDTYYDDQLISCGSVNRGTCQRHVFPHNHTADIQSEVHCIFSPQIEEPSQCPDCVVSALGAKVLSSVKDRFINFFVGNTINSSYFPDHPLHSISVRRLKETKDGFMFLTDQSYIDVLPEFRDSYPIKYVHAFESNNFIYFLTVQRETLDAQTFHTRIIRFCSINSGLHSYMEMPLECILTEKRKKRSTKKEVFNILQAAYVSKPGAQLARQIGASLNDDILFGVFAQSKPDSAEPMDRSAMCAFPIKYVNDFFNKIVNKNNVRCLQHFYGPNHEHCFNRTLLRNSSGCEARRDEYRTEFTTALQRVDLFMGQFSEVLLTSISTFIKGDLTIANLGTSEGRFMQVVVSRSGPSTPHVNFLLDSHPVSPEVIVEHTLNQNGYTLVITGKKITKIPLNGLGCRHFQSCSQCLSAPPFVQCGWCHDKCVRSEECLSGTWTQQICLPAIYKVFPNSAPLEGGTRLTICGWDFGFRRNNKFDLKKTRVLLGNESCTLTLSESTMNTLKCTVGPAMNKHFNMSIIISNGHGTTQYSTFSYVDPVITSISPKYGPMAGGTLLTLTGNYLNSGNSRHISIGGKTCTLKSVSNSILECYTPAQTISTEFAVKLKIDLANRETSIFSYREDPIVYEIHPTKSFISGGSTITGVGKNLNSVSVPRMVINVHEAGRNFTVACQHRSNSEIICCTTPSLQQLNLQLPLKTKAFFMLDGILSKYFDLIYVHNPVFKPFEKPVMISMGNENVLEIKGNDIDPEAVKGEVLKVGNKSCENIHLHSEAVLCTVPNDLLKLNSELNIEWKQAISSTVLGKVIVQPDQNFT

B1: ABF46 (antibody, from another filing, V domains shown)
VH: EVKLVESGGGLVQPGGSLRLSCATSGFTFTDYYMSWVRQPPGKALEWLGFIRNKANGYTTEYSASVKGRFTISRDNSQSILYLQMDTLRAEDSATYYCARDNWFAYWGQGTLVTVSA
VL: DILMTQSPSSLTVSAGEKVTMSCKSSQSLLASGNQNNYLAWHQQKPGRSPKMLIIWASTRVSGVPDRFIGSGSGTDFTLTINSVQAEDLAVYYCQQSYSAPLTFGAGTKLELKR
The molecule B1 came in with a Kd in assay [1] of 0.7 nM.

B2: F6AP8E2 (antibody, V domains shown)
VH: EVQLQQSGAELVRPGALVKLSCKASGFNINDYFMHWVKQRPEQGLEWIGWIDPENGNTIYDPKFQGKASITADTSSNTAYLQLSSLTSEDTAVYYCARGGNYLRESYYYAMDYWGQGTSVTVSS
VL: DIVMTQSPKSMSMSVGERVTLSCKASENVGTYVSWYQQKPDQSPKLLIYGASNRYTGVPDRFTGSGSATDFTLTISSVQAEDLADYHCGQSYSYPLTFGAGTKLELKR
notes: Mouse monoclonal antibody
Take B2: the binding result is reported as “no binding (tested: 10 ug/mL (axis value 1, log10))” with Canine [2]; “no binding (tested: 10 ug/mL (axis value 1, log10))” with mouse cMET [3]; “no binding (tested: 10 ug/mL (axis value 1, log10))” with rat cMET [4].

B3: F5P5B9 (antibody, V domains shown)
VH: QVQLKESGPGLVAPSQSLSITCTVSGFSLTNYGVNWVRQPPGKGLEWLGLIWGGGDTDYNSALKSRLSISKDNSKSQVFLKMETNSLQTDDTARYYCARDYYGFDYWGQGTTLTVSS
VL: DVLMTQTPLSLPVSLGDQASISCRSSQTIVHGTGNTYLEWYLQKPGQSPKLLIYKVSNRFSGVPDRFSGSGSGTDFTLKISRVEAEDLGVYYCFQGSHVPYTFGGGTKLEIKR
notes: Mouse monoclonal antibody
For the molecule B3, the binding result with Canine [5], with mouse cMET [6] and with rat cMET [7] was “no binding (tested: 10 ug/mL)” in each case.

B4: G2akc (antibody, V domains shown)
VH: QVQLVQSGAEVKKPGASVKVSCKASGYTFTSYWMHWVKQAPGQGLDWMGYIKPSTDNTEYAQKFQGRVTLTADKSTSTAYMELSSLRSEDTAVYYCARSYGNYPLMDYWGQGTTVTVSS
VL: QIVLTQSPATLSLSPGERATLSCSASSSVTSNYLYWYQQKPGSSPRLLIYSTSNLASGVPARFSGSGSGTSYTLTISRLEPEDFASYFCHQWSSYPPTFGSGTKLEIKR
notes: As G2aka; also called humanized P3D12, HC VH-abb/sdr, LC cdr
As to B4, the “ELISA hMET vs parental” value with human cMET is 1.3. Moreover, the “ELISA rMET vs parental” value in the assay with rat cMET [8] stood at 0.7.

B5: G2vkf (antibody, V domains shown)
VH: QVQLVQSGAEVAKPGASVKMSCKASGYTFTSYWMHWVKQAPGQGLDWIGYIKPSTDNTEYNQKFKDKATLTADKSTSTAYMQLSSLRSEDTAVYYCARSYGNYPLMDYWGQGTTVTVSS
VL: QIVLTQSPAILSLSPGERATLSCSASSSVTSNYLYWYQQKPGSSPKLLIYSTSNLASGVPARFSGSGSGTSYTLTISSLEAEDAASYFCHQWSSYPPTFGSGTKLEIKR
notes: As G2aka; also called humanized P3D12, HC VH-ven, LC fra
B5: the “ELISA hMET vs parental” value with human cMET is 1.1. The “ELISA rMET vs parental” value in the assay with rat cMET [8] was 1.

B6: F6B1P3D12 (antibody, V domains shown)
VH: QVQLQQSGAELAKPGASVKMSCRASGYTFTSYWMHWVKQRPGQGLDWIGYIKPSTDNTEYNQKFKDKATLTADKSSSTAYMQLSSLTSEDSAVYYCARSYGNYPLMDYWGQGTSVTVSS
VL: QIVLTQSPAIMSASPGEKVTLTCSASSSVTSNYLYWYQQKPGSSPKLWIYSTSNLASGVPARFSGSGSGTSYSLTISSMEAEDAASYFCHQWSSYPPTFGSGTKLEIKR
notes: Mouse monoclonal antibody from a hybridoma; also called Mouse P3D12; P3D12(mouse)
As for B6, the binding result with Canine [9] is reported as “no binding (tested: 10 ug/mL (axis value 1, log10))”; with mouse cMET [10], “no binding (tested: 10 ug/mL (axis value 1, log10))”.

B7: F6BP2D4 (antibody, V domains shown)
VH: QVQLQQSGAELAKPGASVKMSCKASGYTFTSYWMHWVKQRPGQGLEWIGYINPSTDYIEYNQKFKDKATLTAGKSSSTAYMQLSSLTSEDSAVYYCARSYGNFPLMDYWGQGTSVTVSS
VL: QIVLTQSPAIMSASPGEKVTLTCSASSSVSSNYLYWYQQKPGSSPKLWIYSTSNLASGVPVRFSGSGSGTSYSLTISSMEAEDAASYFCHQWSSYPPTFGSGTKLEIKR
notes: Mouse monoclonal antibody
As to B7, the binding result in the assay with Canine [11] is listed as “no binding (tested: 10 ug/mL (axis value 1, log10))”; with mouse cMET [12] it was “no binding (tested: 10 ug/mL (axis value 1, log10))”.

B8: F6B1P1E2 (antibody, V domains shown)
VH: QVQLQQSGAELAKPGASVKMSCKASGYTFTSYWMHWVKQRPGQGLEWIGYINPSTDYTEYNQKFKDKATLTADKSSTTAYMQLSSLTSEDSAVYYCVRSYGNYPLMDYWGQGTSVTVSS
VL: QIVLTQSPAIMSASPGEKVTLTCSASSSVSSNYLYWYHQKPGSSPKLWIYSTSNLASGVPVRFSGSGSGTSYSLTISSMEAEDAASYFCHQWSSYPPTFGSGTKLEIKR
notes: Mouse monoclonal antibody
In the case of B8, the binding result in the assay with Canine [13] is “no binding (tested: 10 ug/mL (axis value 1, log10))”; with mouse cMET [14], “no binding (tested: 10 ug/mL (axis value 1, log10))”.

B9: G2vkv (antibody, V domains shown)
VH: QVQLVQSGAEVAKPGASVKMSCKASGYTFTSYWMHWVKQAPGQGLDWIGYIKPSTDNTEYNQKFKDKATLTADKSTSTAYMQLSSLRSEDTAVYYCARSYGNYPLMDYWGQGTTVTVSS
VL: QIVLTQSPATMSASPGERVTLSCSASSSVTSNYLYWYQQKPGSSPRLWIYSTSNLASGVPARFSGSGSGTSYTLTISRMEPEDAASYFCHQWSSYPPTFGSGTKLEIKR
notes: As G2aka; reported insoluble in PBS; also called humanized P3D12, HC VH-ven, LC ven
Turning to B9, in the assay with human cMET, the “ELISA hMET vs parental” value turned out to be 1.8. Also, the “ELISA rMET vs parental” value in the assay with rat cMET [8] is 1.6.

B10: G2akv (antibody, V domains shown)
VH: QVQLVQSGAEVKKPGASVKVSCKASGYTFTSYWMHWVKQAPGQGLDWMGYIKPSTDNTEYAQKFQGRVTLTADKSTSTAYMELSSLRSEDTAVYYCARSYGNYPLMDYWGQGTTVTVSS
VL: QIVLTQSPATMSASPGERVTLSCSASSSVTSNYLYWYQQKPGSSPRLWIYSTSNLASGVPARFSGSGSGTSYTLTISRMEPEDAASYFCHQWSSYPPTFGSGTKLEIKR
notes: As G2aka; reported insoluble in PBS; also called humanized P3D12, HC VH-abb/sdr, LC ven
For the molecule B10, the “ELISA hMET vs parental” value in the assay with human cMET came to 1.8. For the same molecule, in the assay with rat cMET [8], the “ELISA rMET vs parental” value is 1.3.

B11: G2vka (antibody, V domains shown)
VH: QVQLVQSGAEVAKPGASVKMSCKASGYTFTSYWMHWVKQAPGQGLDWIGYIKPSTDNTEYNQKFKDKATLTADKSTSTAYMQLSSLRSEDTAVYYCARSYGNYPLMDYWGQGTTVTVSS
VL: QIVLTQSPATLSLSPGERATLSCRASQSVTSNYLYWYQQKPGSSPRLLIYSTSNLASGVPARFSGSGSGTDYTLTISRLEPEDFASYFCHQWSSYPPTFGSGTKLEIKR
notes: As G2aka; also called humanized P3D12, HC VH-ven, LC abb/sdr
Consider B11, for which the “ELISA hMET vs parental” value in the assay with human cMET is 0.9. Moreover, in the assay with rat cMET [8], the “ELISA rMET vs parental” value turned out to be 2.7.

B12: G2vkc (antibody, V domains shown)
VH: QVQLVQSGAEVAKPGASVKMSCKASGYTFTSYWMHWVKQAPGQGLDWIGYIKPSTDNTEYNQKFKDKATLTADKSTSTAYMQLSSLRSEDTAVYYCARSYGNYPLMDYWGQGTTVTVSS
VL: QIVLTQSPATLSLSPGERATLSCSASSSVTSNYLYWYQQKPGSSPRLLIYSTSNLASGVPARFSGSGSGTSYTLTISRLEPEDFASYFCHQWSSYPPTFGSGTKLEIKR
notes: As G2aka; also called humanized P3D12, HC VH-ven, LC cdr
With B12, in the assay with human cMET, the “ELISA hMET vs parental” value was found to be 1.1. Besides, the “ELISA rMET vs parental” value with rat cMET [8] is 1.9.
